The text below walks through data of paper PMC8467012.

The target in this assay is ErbB3 receptor on cancer cells (human (endogenous in MCF-7, SK-BR-3, BT-474, Hep G2)) (UniProt P21860).
Sequence of ErbB3 receptor on cancer cells (human (endogenous in MCF-7, SK-BR-3, BT-474, Hep G2)) (P21860 20-1342): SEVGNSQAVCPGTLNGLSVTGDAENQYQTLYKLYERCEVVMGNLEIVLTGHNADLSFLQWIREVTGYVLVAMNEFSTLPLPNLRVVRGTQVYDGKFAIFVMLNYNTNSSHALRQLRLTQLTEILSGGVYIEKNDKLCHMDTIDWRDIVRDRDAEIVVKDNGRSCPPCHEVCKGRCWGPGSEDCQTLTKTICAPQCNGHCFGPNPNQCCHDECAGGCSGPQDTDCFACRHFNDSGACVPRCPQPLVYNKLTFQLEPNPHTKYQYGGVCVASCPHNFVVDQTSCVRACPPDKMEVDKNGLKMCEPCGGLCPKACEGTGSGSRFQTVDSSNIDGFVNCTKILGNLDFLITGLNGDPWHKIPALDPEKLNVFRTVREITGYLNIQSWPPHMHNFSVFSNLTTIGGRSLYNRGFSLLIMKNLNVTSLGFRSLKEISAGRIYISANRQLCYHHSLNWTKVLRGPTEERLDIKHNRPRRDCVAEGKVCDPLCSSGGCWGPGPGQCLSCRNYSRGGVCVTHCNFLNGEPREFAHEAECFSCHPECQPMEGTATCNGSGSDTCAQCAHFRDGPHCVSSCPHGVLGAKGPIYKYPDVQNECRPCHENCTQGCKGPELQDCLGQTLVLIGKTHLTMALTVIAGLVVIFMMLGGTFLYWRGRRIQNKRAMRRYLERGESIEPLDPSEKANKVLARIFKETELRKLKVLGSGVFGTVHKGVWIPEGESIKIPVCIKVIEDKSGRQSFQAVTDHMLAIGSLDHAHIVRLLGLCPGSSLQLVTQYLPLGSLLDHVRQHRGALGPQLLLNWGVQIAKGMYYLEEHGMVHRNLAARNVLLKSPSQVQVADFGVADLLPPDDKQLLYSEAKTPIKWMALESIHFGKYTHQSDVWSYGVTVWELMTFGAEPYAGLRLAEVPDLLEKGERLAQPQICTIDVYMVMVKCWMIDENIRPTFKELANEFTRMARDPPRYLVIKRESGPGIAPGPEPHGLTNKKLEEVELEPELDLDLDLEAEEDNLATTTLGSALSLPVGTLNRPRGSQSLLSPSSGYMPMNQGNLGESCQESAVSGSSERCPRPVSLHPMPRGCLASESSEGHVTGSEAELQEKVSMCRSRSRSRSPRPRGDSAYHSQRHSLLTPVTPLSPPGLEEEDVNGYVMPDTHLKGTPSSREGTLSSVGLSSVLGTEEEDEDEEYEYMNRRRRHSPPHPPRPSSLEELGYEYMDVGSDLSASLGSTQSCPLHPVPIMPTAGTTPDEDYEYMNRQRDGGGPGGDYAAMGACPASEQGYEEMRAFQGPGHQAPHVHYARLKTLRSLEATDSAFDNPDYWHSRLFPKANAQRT

B1: BCD090-M2 (VHH)
VHH: QVQLVQSGGGLVQAGGSLRLSCAFSGRTFSMYTMGWFRQAPGKEREFVAANRGRGLSPDIADSVNGRFTISRDNAKNTLYLQMDSLKPEDTAVYYCAADLQYGSSWPQRSSAEYDYWGQGTTVTVSS
Take B1: the EC50 of inhibition of heregulin-driven proliferation of MCF-7 cells (MTS, 5 days, 50 ng/mL heregulin-1β); blocks heregulin binding to ErbB3 was 25 µg/mL and the EC50 of inhibition of proliferation of SK-BR-3 cells (MTS, 5 days, 50 ng/mL heregulin-1β); blocks heregulin binding to ErbB3 is 3 µg/mL.

B2: BCD090-P1 (VHH)
VHH: EVQLVQSGGGLVQPGGSLRLSCAASGRTSSKYAMGWFRQAPGKGTEFVATISWSDGSTYYADSVEGRFTISRDNAKNTVYLQMNSLKPEDTAVYYCAAAVDVLAGTFEYEYDYWGQGTLVTVSS
In the case of B2, the EC50 of inhibition of heregulin-driven proliferation of MCF-7 cells (MTS, 5 days, 50 ng/mL heregulin-1β) was 0.1 µg/mL and the EC50 of inhibition of proliferation of SK-BR-3 cells (MTS, 5 days, 50 ng/mL heregulin-1β) came out at 15 µg/mL.
